Results from publication PMC8096265, “A functional LSD1 coregulator screen reveals a novel transcriptional regulatory cascade connecting R-loop homeostasis with epigenetic regulation” (Nucleic Acids Research, 2021).

Biological target: FITC-labelled H3.1 peptide (residues 16-34) trimethylated at K27 (UniProt P68431)
Assay: fluorescence polarisation; fluorescence anisotropy; 50 nM FITC-labelled H3.1 (16-34) peptide in 20 mM HEPES pH 7.5, 100 mM KCl, 0.1 mM DTT, 10% glycerol; DDX19A added stepwise; 23°C; fit to a simple binding equilibrium

Kd: 82 nM
B1: GST-DDX19A (recombinant full-length DEAD-box helicase 19A) (enzyme)
chain: MATDSWALAVDEQEAAVKSMTNLQIKEEKVKADTNGIIKTSTTAEKTDEEEKEDRAAQSLLNKLIRSNLVDNTNQVEVLQRDPNSPLYSVKSFEELRLKPQLLQGVYAMGFNRPSKIQENALPMMLAEPPQNLIAQSQSGTGKTAAFVLAMLSRVEPSDRYPQCLCLSPTYELALQTGKVIEQMGKFYPELKLAYAVRGNKLERGQKISEQIVIGTPGTVLDWCSKLKFIDPKKIKVFVLDEADVMIATQGHQDQSIRIQRMLPRNCQMLLFSATFEDSVWKFAQKVVPDPNVIKLKREEETLDTIKQYYVLCSSRDEKFQALCNLYGAITIAQAMIFCHTRKTASWLAAELSKEGHQVALLSGEMMVEQRAAVIERFREGKEKVLVTTNVCARGIDVEQVSVVINFDLPVDKDGNPDNETYLHRIGRTGRFGKRGLAVNMVDSKHSMNILNRIQEHFNKKIERLDTDDLDEIEKIAN
